Bridge positions count the residues as written; N and C are the ends. Square brackets hold non-standard residues; d marks the D form. Ends that are not written are not given here. Bip = N[C@@H](Cc1ccc(-c2ccccc2)cc1)C(=O)O; 1Nal = N[C@@H](Cc1cccc2ccccc12)C(=O)O; 2Nal = N[C@@H](Cc1ccc2ccccc2c1)C(=O)O; NMeR = CN[C@@H](CCCNC(=N)N)C(=O)O; Tic = O=C(O)[C@@H]1Cc2ccccc2CN1; β3hE = N[C@@H](CCC(=O)O)CC(=O)O; NMeK = CN[C@@H](CCCCN)C(=O)O; Pen = CC(C)(S)[C@H](N)C(=O)O; dNMeK = CN[C@H](CCCCN)C(=O)O
B1: SEQ ID NO 18 (peptide)
peptide: Ac-[Pen][NMeR]SDTL[Pen][1Nal]E[dNMeK]-NH2
modifications: disulfide 1-7
SMILES: CC(=O)N[C@@H]1C(=O)N(C)[C@@H](CCCNC(=N)N)C(=O)N[C@@H](CO)C(=O)N[C@@H](CC(=O)O)C(=O)N[C@@H]([C@@H](C)O)C(=O)N[C@@H](CC(C)C)C(=O)N[C@H](C(=O)N[C@@H](Cc2cccc3ccccc23)C(=O)N[C@@H](CCC(=O)O)C(=O)N(C)[C@H](CCCCN)C(N)=O)C(C)(C)SSC1(C)C
B2: biotin-labeled vedolizumab (antibody, INN chains, looked up, V domains shown)
VH: QVQLVQSGAEVKKPGASVKVSCKGSGYTFTSYWMHWVRQAPGQRLEWIGEIDPSESNTNYNQKFKGRVTLTVDISASTAYMELSSLRSEDTAVYYCARGGYDGWDYAIDYWGQGTLVTVSS
VL: DVVMTQSPLSLPVTPGEPASISCRSSQSLAKSYGNTYLSWYLQKPGQSPQLLIYGISNRFSGVPDRFSGSGSGTDFTLKISRVEAEDVGVYYCLQGTHQPYTFGQGTKVEIKR
modifications: biotin label
B3: SEQ ID NO 12 (peptide)
peptide: Ac-[Pen][NMeR]SDTL[Pen][1Nal][dE][dNMeK]-NH2
modifications: disulfide 1-7
SMILES: CC(=O)N[C@@H]1C(=O)N(C)[C@@H](CCCNC(=N)N)C(=O)N[C@@H](CO)C(=O)N[C@@H](CC(=O)O)C(=O)N[C@@H]([C@@H](C)O)C(=O)N[C@@H](CC(C)C)C(=O)N[C@H](C(=O)N[C@@H](Cc2cccc3ccccc23)C(=O)N[C@H](CCC(=O)O)C(=O)N(C)[C@H](CCCCN)C(N)=O)C(C)(C)SSC1(C)C
B4: SEQ ID NO 143 (peptide)
peptide: [Pen][NMeR]SDTL[Pen][2Nal]E
modifications: disulfide 1-7 (inferred); not fully specified (bridges); printed as Cyclo-[Pen-(N-Me-R)-S-D-T-L-Pen-(2-Nal)-E], disulfide

Assays:
[1] = molecular target: rh integrin α4β7 (R&D Systems #5397-A30) (human) (UniProt P13612); assay: α4β7-MAdCAM competition ELISA
[2] = molecular target: α4β1 (R&D Systems #5668-A4) (UniProt P13612); assay: α4β1-VCAM competition ELISA
[3] = molecular target: T1, α4β7 integrin on mouse TK1 cells (mouse, UniProt Q00651 41-1039; P26011 20-806); assay: cell-based or functional assay
T1 sequence (Q00651 41-1039, chain 1 of 2): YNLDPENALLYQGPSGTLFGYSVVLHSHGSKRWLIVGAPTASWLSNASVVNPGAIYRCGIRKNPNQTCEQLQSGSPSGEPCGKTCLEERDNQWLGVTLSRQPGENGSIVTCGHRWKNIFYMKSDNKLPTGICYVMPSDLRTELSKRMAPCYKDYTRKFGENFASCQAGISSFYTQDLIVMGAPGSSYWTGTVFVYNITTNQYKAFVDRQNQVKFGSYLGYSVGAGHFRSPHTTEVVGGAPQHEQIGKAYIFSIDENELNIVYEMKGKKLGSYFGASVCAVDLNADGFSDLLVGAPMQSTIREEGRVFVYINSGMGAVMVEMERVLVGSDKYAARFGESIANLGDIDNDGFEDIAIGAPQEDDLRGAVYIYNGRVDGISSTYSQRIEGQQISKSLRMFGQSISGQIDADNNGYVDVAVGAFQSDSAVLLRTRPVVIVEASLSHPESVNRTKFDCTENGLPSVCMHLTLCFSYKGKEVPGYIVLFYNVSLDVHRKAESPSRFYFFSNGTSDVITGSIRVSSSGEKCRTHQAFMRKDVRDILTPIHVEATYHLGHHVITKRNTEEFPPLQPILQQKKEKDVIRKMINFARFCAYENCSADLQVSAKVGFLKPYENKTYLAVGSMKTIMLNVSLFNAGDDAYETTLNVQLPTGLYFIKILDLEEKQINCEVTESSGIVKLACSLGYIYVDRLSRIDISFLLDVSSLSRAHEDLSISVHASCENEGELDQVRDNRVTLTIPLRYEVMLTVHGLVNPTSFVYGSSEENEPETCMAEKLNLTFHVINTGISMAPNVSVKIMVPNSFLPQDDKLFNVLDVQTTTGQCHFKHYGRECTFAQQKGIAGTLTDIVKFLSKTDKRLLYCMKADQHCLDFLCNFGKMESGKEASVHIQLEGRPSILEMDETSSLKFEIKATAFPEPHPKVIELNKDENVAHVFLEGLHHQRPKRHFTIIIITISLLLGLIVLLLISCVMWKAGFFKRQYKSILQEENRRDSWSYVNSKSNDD
T1 sequence (P26011 20-806, chain 2 of 2): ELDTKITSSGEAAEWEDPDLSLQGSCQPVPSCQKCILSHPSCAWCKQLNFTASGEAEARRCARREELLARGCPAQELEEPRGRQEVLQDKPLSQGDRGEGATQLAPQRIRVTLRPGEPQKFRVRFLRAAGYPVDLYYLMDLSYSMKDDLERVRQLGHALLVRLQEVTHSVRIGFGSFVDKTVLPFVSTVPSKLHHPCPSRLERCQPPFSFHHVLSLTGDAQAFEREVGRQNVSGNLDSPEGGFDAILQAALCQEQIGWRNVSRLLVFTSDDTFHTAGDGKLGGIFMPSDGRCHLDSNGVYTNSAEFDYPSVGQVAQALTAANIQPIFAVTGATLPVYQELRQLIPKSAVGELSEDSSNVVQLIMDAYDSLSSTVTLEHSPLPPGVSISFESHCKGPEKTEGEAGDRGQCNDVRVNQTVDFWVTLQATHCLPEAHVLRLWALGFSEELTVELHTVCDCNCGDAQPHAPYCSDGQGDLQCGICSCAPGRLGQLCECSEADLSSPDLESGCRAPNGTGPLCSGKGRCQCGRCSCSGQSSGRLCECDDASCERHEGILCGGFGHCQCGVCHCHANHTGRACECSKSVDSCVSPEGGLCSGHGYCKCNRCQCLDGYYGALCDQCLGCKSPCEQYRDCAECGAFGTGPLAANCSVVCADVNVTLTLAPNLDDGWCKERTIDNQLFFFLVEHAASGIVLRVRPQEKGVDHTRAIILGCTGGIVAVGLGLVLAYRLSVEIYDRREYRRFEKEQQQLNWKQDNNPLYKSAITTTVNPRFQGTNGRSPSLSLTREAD

[4] = molecular target: T2, α4β7 integrin on human cells (human, UniProt P13612 34-1032; P26010 20-798); assay: cell-based or functional assay
[5] = molecular target: α4β1 integrin on human cells (human, UniProt P13612 34-1032; P05556 21-798); assay: cell-based or functional assay
[6] = molecular target: α4β7 integrin on human cells (human) (UniProt P13612); assay: FACS, human whole blood, 1 mM MnCl2, Eosinophils
[7] = molecular target: α4β7 integrin on human cells (human) (UniProt P13612); assay: FACS, human whole blood, 1 mM MnCl2, NK cells CD16+ 56+
[8] = molecular target: α4β7 integrin on human cells (human) (UniProt P13612); assay: FACS, human whole blood, 1 mM MnCl2, CD8 memory T cells
[9] = molecular target: α4β7 integrin on human cells (human) (UniProt P13612); assay: FACS, human whole blood, 1 mM MnCl2, CD4 memory T cells
[10] = molecular target: α4β7 integrin on human cells (human) (UniProt P13612); assay: FACS, human whole blood, 1 mM MnCl2, Basophils
[11] = molecular target: α4β7 integrin on human cells (human) (UniProt P13612); assay: FACS, human whole blood, 1 mM MnCl2, CD19+ B cells
[12] = molecular target: soluble α4β7 integrin (Homo sapiens (Human)) (UniProt P13612); assay: SPR, antibody on streptavidin chip, soluble α4β7 as analyte
[13] = molecular target: α4β7 integrin on human cells (human) (UniProt P13612); assay: FACS, human whole blood, 1 mM MnCl2, CD4 naïve T cells
[14] = molecular target: α4β7 integrin on human cells (human) (UniProt P13612); assay: FACS, human whole blood, 1 mM MnCl2, CD8 naïve T cells
[15] = molecular target: α4β7 integrin on human cells (human) (UniProt P13612); assay: FACS, human whole blood, 1 mM MnCl2, Neutrophils
[16] = molecular target: α4β7 integrin on human cells (human) (UniProt P13612); assay: FACS, human whole blood, 1 mM MnCl2, Monocytes
[17] = molecular target: T2, α4β7 integrin on human cells; assay: cell-based or functional assay; remark: listed apart in the source
[18] = molecular target: T1, α4β7 integrin on mouse TK1 cells; assay: cell-based or functional assay; remark: listed apart in the source

Row | Binder | IC50 [1] [nM] | IC50 [2] [nM] | α4β7 cell (Hu) IC50 [17] [nM] | other results
1 | B1 | > 10 | > 500 |  | 
2 | Ac-[Pen][NMeR]SDTL[Pen][2Nal]E[dK]-NH2 (disulfide 1-7 (inferred)) [SEQ ID NO 210] | 11 | 200 |  | Cell Adhesion α4β7 Mouse IC50 [3]: 60 nM; Cell Adhesion PBMC IC50 [4]: 517 nM; Cell Adhesion α4β7 IC50 [4]: 40 nM; Cell Adhesion α4β1 IC50 [5]: > 100000 nM
3 | Ac-[Pen][NMeR]SDTL[Pen][2Nal]E[dK]-NH2 (disulfide 1-7 (inferred); also: homodimer via DIG) [SEQ ID NO 212] | 2 | 70 |  | Cell Adhesion α4β7 Mouse IC50 [3]: 2.5 nM; Cell Adhesion α4β7 IC50 [4]: 2.5 nM; Cell Adhesion α4β1 IC50 [5]: > 100000 nM
4 | B2 |  |  |  | Percent positive staining [6]: 91%; Percent positive staining [7]: 42%; Percent positive staining [8]: 36%; Percent positive staining [9]: 22%; Percent positive staining [10]: 86%; Percent positive staining [11]: 85%; Half-life for dissociation [12]: 43 min; Kd [12]: 59.5 nM; koff [12]: 0.000266 s⁻¹; kon [12]: 4470 M⁻¹ s⁻¹; Percent positive staining [13]: 55%; Percent positive staining [14]: 53%; Percent positive staining [15]: 0.45%; Percent positive staining [16]: 7%
5 | Ac-[Pen][NMeR]SDTL[Pen][2Nal]Y[dK]-NH2 (disulfide 1-7 (inferred); also: homodimer via DIG) [SEQ ID NO 23] |  | > 100 | ≤ 10 | 
6 | Ac-[Pen][NMeR]SDTL[Pen][1Nal]E[dK]-NH2 (disulfide 1-7 (inferred); also: homodimer via DIG) [SEQ ID NO 24] | < 10 | > 100 | ≤ 10 | 
7 | Ac-[Pen][NMeR]SDTL[Pen][2Nal][dE][dK]-NH2 (disulfide 1-7 (inferred); also: homodimer via DIG linker) [SEQ ID NO 29] | < 10 |  | > 10 | 
8 | Ac-[Pen][NMeR]SDTL[Pen][1Nal][dE][dK]-NH2 (disulfide 1-7 (inferred); also: homodimer via DIG linker) [SEQ ID NO 32] | < 10 | > 100 | > 10 | 
9 | Ac-[Pen][NMeR]SDTL[Pen][1Nal][dE][dNMeK]-NH2 (disulfide 1-7 (inferred); also: homodimer via DIG linker) [SEQ ID NO 38] | < 10 | > 100 | ≤ 10 | 
10 | Ac-[Pen][NMeR]SDTL[Pen][2Nal]E[dNMeK]-NH2 (disulfide 1-7 (inferred); also: homodimer via DIG linker) [SEQ ID NO 41] | < 10 | > 100 | ≤ 10 | 
11 | Ac-[Pen][NMeR]SDTL[Pen][1Nal]E[dNMeK]-NH2 (disulfide 1-7 (inferred); also: homodimer via DIG linker) [SEQ ID NO 44] | < 10 | > 100 | ≤ 10 | α4β7 cell(Mu) IC50 [18]: ≤ 10 nM
12 | Ac-[Pen][NMeR]SDTL[Pen][2Nal][dE][dK]-NH2 (disulfide 1-7 (inferred)) [SEQ ID NO 9] | > 10 |  | > 100 | 
13 | Ac-[Pen][NMeR]SDTL[Pen][Bip]E[dK]-NH2 (disulfide 1-7 (inferred); also: homodimer via DIG) [SEQ ID NO 134] | < 10 | > 100 | ≤ 10 | 
14 | B3 | > 25 |  |  | 
15 | Ac-[Pen][NMeR]SDTL[Pen][2Nal][β3hE][dK]-NH2 (disulfide 1-7 (inferred); also: homodimer via DIG) [SEQ ID NO 137] | < 10 | > 1000 | ≤ 10 | 
16 | Ac-[Pen][NMeR]SDTL[Pen][2Nal]E[NMeK]-NH2 (disulfide 1-7 (inferred); also: homodimer via DIG) [SEQ ID NO 138] | > 10 |  | > 10 | 
17 | Ac-[Pen][NMeR]SDTL[Pen][1Nal][β3hE][NMeK]-NH2 (disulfide 1-7 (inferred); also: homodimer via DIG) [SEQ ID NO 142] | < 10 | > 500 | ≤ 10 | PBMC IC50 [17]: > 50 nM
18 | B4 | 250 |  | > 10000 | 
19 | Ac-[Pen][NMeR]SDTL[Pen][2Nal][dE][dNMeK]-NH2 (disulfide 1-7 (inferred)) [SEQ ID NO 13] | > 10 |  | > 100 | 
20 | Ac-[Pen][NMeR]SDTL[Pen][Bip][b‑H‑E][NMeK]-NH2 (disulfide 1-7 (inferred); also: homodimer via DIG) [SEQ ID NO 150] | < 10 | > 1000 | ≤ 10 | α4β7 cell(Mu) IC50 [18]: ≤ 10 nM
21 | Ac-[Pen][NMeR]SDTL[Pen][Tic][β3hE]-NH2 (disulfide 1-7 (inferred)) [SEQ ID NO 154] |  | > 1000 | > 100 | α4β7 cell(Mu) IC50 [18]: > 1000 nM
22 | Ac-[Pen][NMeR]SDTL[Pen][2Nal][b‑H‑E]-NH2 (disulfide 1-7 (inferred)) [SEQ ID NO 155] |  | > 1000 | > 25 | α4β7 cell(Mu) IC50 [18]: > 25 nM
23 | Ac-[Pen][NMeR]SDTL[Pen]WE(OMe)[dK]-NH2 (disulfide 1-7 (inferred); also: homodimer linked by DIG) [SEQ ID NO 86] |  |  | ≤ 10 | α4β7 cell(Mu) IC50 [18]: ≤ 10 nM

— patent publication US20160159862A1 (PROTAGONIST THERAPEUTICS, published 2016)
